System: Escherichia coli TOP10
Test: shrunken log2 fold change of peptide-encoding DNA abundance (4.5 h post-induction vs induction); higher = less antimicrobial activity (less host growth inhibition)
Conditions: time post-induction: 4.5 h; library: site-saturation at positions 5, 18, 19, 20
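Further: peptides expressed intracellularly from a pBAD plasmid library in pooled LB shake-flask culture, induced with 0.3% L-arabinose, DNA abundance read by NGS, three biological replicates, DESeq2 with apeglm shrinkage.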

Sequence	shrunken log2 fold change
RRIRGRPPRLPRPRPRPVHNPRP	0.259
RRIRWRPPRLPRPRPRPQLIPRP	-0.153
RRIRPRPPRLPRPRPRPLGPPRP	0.153
RRIRVRPPRLPRPRPRPTPVPRP	0.465
RRIRWRPPRLPRPRPRPNVPPRP	-0.144
RRIRGRPPRLPRPRPRPGCYPRP	0.345
RRIRRRPPRLPRPRPRPLLFPRP	0.278
RRIRSRPPRLPRPRPRPGAVPRP	0.324
RRIRPRPPRLPRPRPRPKTSPRP	0.0127
RRIRGRPPRLPRPRPRPLEMPRP	0.998
RRIRFRPPRLPRPRPRPTFHPRP	-0.385
RRIRCRPPRLPRPRPRPATGPRP	0.201
RRIRVRPPRLPRPRPRPYDAPRP	-0.294
RRIRQRPPRLPRPRPRPEEGPRP	-0.0102
RRIRIRPPRLPRPRPRPACDPRP	-0.0913
RRIRSRPPRLPRPRPRPGDAPRP	0.298
RRIRERPPRLPRPRPRPICSPRP	-0.0316
RRIRWRPPRLPRPRPRPNTEPRP	-0.324
RRIRYRPPRLPRPRPRPDSYPRP	-0.0836
RRIRDRPPRLPRPRPRPHHHPRP	-0.505
RRIRVRPPRLPRPRPRPRGPPRP	0.946
RRIRSRPPRLPRPRPRPQMRPRP	0.691
RRIRRRPPRLPRPRPRPDSKPRP	-0.0649
RRIRVRPPRLPRPRPRPQAEPRP	0.352
RRIRCRPPRLPRPRPRPETNPRP	0.222

Sequence	shrunken log2 fold change
RRIRKRPPRLPRPRPRPYITPRP	-0.548
RRIRHRPPRLPRPRPRPAEEPRP	0.175
RRIRQRPPRLPRPRPRPIQEPRP	-0.142
RRIRFRPPRLPRPRPRPLMPPRP	-0.00679
RRIRNRPPRLPRPRPRPKLWPRP	-0.0235
RRIRDRPPRLPRPRPRPPRYPRP	0.244
RRIRHRPPRLPRPRPRPCMAPRP	-0.213
RRIRWRPPRLPRPRPRPPLEPRP	0.474
RRIRDRPPRLPRPRPRPQLEPRP	-0.0748
RRIRPRPPRLPRPRPRPPVLPRP	-0.0339
RRIRTRPPRLPRPRPRPRVWPRP	0.382
RRIRLRPPRLPRPRPRPLRNPRP	0.737
RRIRSRPPRLPRPRPRPCNAPRP	-0.0263
RRIRCRPPRLPRPRPRPHFPPRP	-0.0893
RRIRMRPPRLPRPRPRPDPWPRP	0.336
RRIRSRPPRLPRPRPRPYMHPRP	-0.395
RRIRARPPRLPRPRPRPSRDPRP	0.199
RRIRMRPPRLPRPRPRPILKPRP	-0.206
RRIRHRPPRLPRPRPRPCCKPRP	1.89
RRIRRRPPRLPRPRPRPVMQPRP	0.316
RRIRMRPPRLPRPRPRPREFPRP	0.0273
RRIRGRPPRLPRPRPRPLTQPRP	0.594
RRIRVRPPRLPRPRPRPVKNPRP	0.118
RRIRERPPRLPRPRPRPKLYPRP	-0.432
RRIRARPPRLPRPRPRPGTHPRP	0.173

Sequence	shrunken log2 fold change
RRIRARPPRLPRPRPRPHKKPRP	-0.163
RRIRCRPPRLPRPRPRPLDKPRP	-0.328
RRIRRRPPRLPRPRPRPYPQPRP	-0.0454
RRIRWRPPRLPRPRPRPFGKPRP	-0.578
RRIRVRPPRLPRPRPRPGAAPRP	0.653
RRIRRRPPRLPRPRPRPKNEPRP	0.294
RRIRIRPPRLPRPRPRPDCMPRP	-0.106
RRIRMRPPRLPRPRPRPGVYPRP	0.104
RRIRARPPRLPRPRPRPRGMPRP	0.32
RRIRERPPRLPRPRPRPDLAPRP	0.27
RRIRNRPPRLPRPRPRPIAFPRP	-0.111
RRIRCRPPRLPRPRPRPTAFPRP	0.0759
RRIRGRPPRLPRPRPRPCELPRP	-0.02
RRIRARPPRLPRPRPRPYKQPRP	-0.295
RRIRTRPPRLPRPRPRPKYAPRP	-0.495
RRIRNRPPRLPRPRPRPKTEPRP	-0.067
RRIRRRPPRLPRPRPRPSEDPRP	0.0524
RRIRFRPPRLPRPRPRPIWSPRP	0.0199
RRIRMRPPRLPRPRPRPPVGPRP	1.06
RRIRRRPPRLPRPRPRPIAIPRP	0.108
RRIRCRPPRLPRPRPRPFGSPRP	-0.078
RRIRTRPPRLPRPRPRPMDFPRP	0.0159
RRIRPRPPRLPRPRPRPCDEPRP	0.0442
RRIRKRPPRLPRPRPRPYTAPRP	-0.338
RRIRPRPPRLPRPRPRPHKMPRP	-0.403

Sequence	shrunken log2 fold change
RRIRKRPPRLPRPRPRPPWPPRP	0.827
RRIRQRPPRLPRPRPRPMTMPRP	-0.243
RRIRNRPPRLPRPRPRPQLFPRP	0.177
RRIRERPPRLPRPRPRPGMSPRP	0.0438
RRIRSRPPRLPRPRPRPRIPPRP	-0.179
RRIRVRPPRLPRPRPRPSGHPRP	-0.185
RRIRARPPRLPRPRPRPRRLPRP	0.537
RRIRHRPPRLPRPRPRPMSQPRP	-0.151
RRIRPRPPRLPRPRPRPDMMPRP	-0.0321
RRIRERPPRLPRPRPRPAYAPRP	0.0657
RRIRYRPPRLPRPRPRPTVWPRP	0.385
RRIRARPPRLPRPRPRPLDYPRP	-0.25
RRIRSRPPRLPRPRPRPKFRPRP	-0.183
RRIRHRPPRLPRPRPRPNITPRP	-0.489
RRIRLRPPRLPRPRPRPWYYPRP	-0.266
RRIRQRPPRLPRPRPRPHWTPRP	-0.0125
RRIRHRPPRLPRPRPRPDIIPRP	-0.0233
RRIRCRPPRLPRPRPRPLTNPRP	-0.454
RRIRERPPRLPRPRPRPQGFPRP	-0.144
RRIRWRPPRLPRPRPRPGTTPRP	0.0295
RRIRCRPPRLPRPRPRPAHGPRP	0.23
RRIRTRPPRLPRPRPRPWVNPRP	-0.208
RRIRWRPPRLPRPRPRPYTKPRP	0.000534
RRIRKRPPRLPRPRPRPAETPRP	0.336
RRIRMRPPRLPRPRPRPFLTPRP	0.0674

Sequence	shrunken log2 fold change
RRIRYRPPRLPRPRPRPPYTPRP	-0.94
RRIRRRPPRLPRPRPRPGKVPRP	-0.037
RRIRMRPPRLPRPRPRPAFSPRP	0.0185
RRIRKRPPRLPRPRPRPEWKPRP	0.0315
RRIRGRPPRLPRPRPRPNKWPRP	0.0346
RRIRFRPPRLPRPRPRPDQDPRP	-0.00191
RRIRPRPPRLPRPRPRPINWPRP	-0.241
RRIRMRPPRLPRPRPRPYDWPRP	-0.133
RRIRARPPRLPRPRPRPCWKPRP	-0.16
RRIRIRPPRLPRPRPRPMRKPRP	0.0125
RRIRWRPPRLPRPRPRPSIVPRP	-0.00221
RRIRHRPPRLPRPRPRPFYQPRP	-0.389
RRIRCRPPRLPRPRPRPTTYPRP	-0.781
RRIRKRPPRLPRPRPRPIQHPRP	-0.311
RRIRYRPPRLPRPRPRPFCWPRP	-0.212
RRIRQRPPRLPRPRPRPKPPPRP	0.27
RRIRDRPPRLPRPRPRPFPEPRP	-0.144
RRIRHRPPRLPRPRPRPLEFPRP	0.0369
RRIRTRPPRLPRPRPRPIKGPRP	-0.331
RRIRKRPPRLPRPRPRPWQSPRP	0.0203
RRIRGRPPRLPRPRPRPLPIPRP	0.0433
RRIRSRPPRLPRPRPRPPDIPRP	-0.283
RRIRPRPPRLPRPRPRPKGNPRP	-0.097
RRIRERPPRLPRPRPRPLEVPRP	-0.166
RRIRVRPPRLPRPRPRPCLGPRP	-0.069

Sequence	shrunken log2 fold change
RRIRTRPPRLPRPRPRPYWWPRP	-0.554
RRIRSRPPRLPRPRPRPFVEPRP	-0.123
RRIRGRPPRLPRPRPRPVTGPRP	0.21
RRIRSRPPRLPRPRPRPEWNPRP	0.119
RRIRIRPPRLPRPRPRPHKMPRP	-0.237
RRIRQRPPRLPRPRPRPHDWPRP	-0.372
RRIRVRPPRLPRPRPRPWCTPRP	0.0234
RRIRYRPPRLPRPRPRPVPDPRP	-0.0838
RRIRWRPPRLPRPRPRPYMMPRP	-0.842
RRIRWRPPRLPRPRPRPPAFPRP	0.204
RRIRWRPPRLPRPRPRPQTCPRP	0.108
RRIRCRPPRLPRPRPRPTRTPRP	0.406
RRIRLRPPRLPRPRPRPSYDPRP	-0.292
RRIRMRPPRLPRPRPRPCEHPRP	0.249
RRIRYRPPRLPRPRPRPNFWPRP	0.293
RRIRQRPPRLPRPRPRPQQVPRP	-0.0545
RRIRKRPPRLPRPRPRPPCHPRP	0.176
RRIRGRPPRLPRPRPRPEFMPRP	0.887
RRIRKRPPRLPRPRPRPSAKPRP	0.397
RRIRIRPPRLPRPRPRPGGTPRP	-0.439
RRIRARPPRLPRPRPRPLARPRP	0.81
RRIRIRPPRLPRPRPRPVMIPRP	-0.00671
RRIRCRPPRLPRPRPRPWSPPRP	-0.0395
RRIRNRPPRLPRPRPRPQSAPRP	-0.073
RRIRFRPPRLPRPRPRPGTFPRP	-0.492

From the supplement of paper PMC9112550, “Optimization of the antimicrobial peptide Bac7 by deep mutational scanning” (BMC Biology, 2022)
